Data taken from patent publication US20060246084A1.

Assays:
[1] = molecular target: human TLR-2 receptor on CD14-positive human thymic epithelial VTEC2.HS cells (human) (UniProt O60603); test: 125I radioligand on VTEC2.HS cells; binding not detectable
[2] = molecular target: IFN-γ receptor on human cells (no IFN-γ added) (human) (UniProt P15260); test: 125I-LcrV68-326 alone on U937 cells
[3] = molecular target: IFN-γ receptor on human cells (no IFN-γ added) (human) (UniProt P15260); test: 125I-LcrV68-326 alone on human monocytes
[4] = molecular target: IFN-γ receptor on human cells (no IFN-γ added) (human) (UniProt P15260); test: 125I-LcrV68-326 alone on human thymocytes
[5] = molecular target: IFN-γ receptor on human cells (no IFN-γ added) (human) (UniProt P15260); test: 125I-LcrV68-326 alone on human neutrophils
[6] = molecular target: human TLR-2 receptor on CD14-positive human thymic epithelial VTEC2.HS cells (human) (UniProt O60603); test: Scatchard analysis, 125I radioligand on VTEC2.HS cells
[7] = molecular target: IFN-γ C-terminal peptide … (human)
[8] = molecular target: synthetic fragment of the mouse TLR-2 extracellular domain (mouse)
[9] = molecular target: receptors of human cells in the presence of IFN-α2 (human) (UniProt P01563); test: 125I-LcrV68-326 plus unlabelled IFN-α2 on U937 cells
[10] = molecular target: receptors of human cells in the presence of IFN-α2 (human) (UniProt P01563); test: 125I-LcrV68-326 plus unlabelled IFN-α2 on human monocytes
[11] = molecular target: receptors of human cells in the presence of IFN-α2 (human) (UniProt P01563); test: 125I-LcrV68-326 plus unlabelled IFN-α2 on human thymocytes
[12] = molecular target: receptors of human cells in the presence of IFN-α2 (human) (UniProt P01563); test: 125I-LcrV68-326 plus unlabelled IFN-α2 on human neutrophils

Sequence of IFN-γ receptor on human cells (no IFN-γ added) (human) (P15260 18-489): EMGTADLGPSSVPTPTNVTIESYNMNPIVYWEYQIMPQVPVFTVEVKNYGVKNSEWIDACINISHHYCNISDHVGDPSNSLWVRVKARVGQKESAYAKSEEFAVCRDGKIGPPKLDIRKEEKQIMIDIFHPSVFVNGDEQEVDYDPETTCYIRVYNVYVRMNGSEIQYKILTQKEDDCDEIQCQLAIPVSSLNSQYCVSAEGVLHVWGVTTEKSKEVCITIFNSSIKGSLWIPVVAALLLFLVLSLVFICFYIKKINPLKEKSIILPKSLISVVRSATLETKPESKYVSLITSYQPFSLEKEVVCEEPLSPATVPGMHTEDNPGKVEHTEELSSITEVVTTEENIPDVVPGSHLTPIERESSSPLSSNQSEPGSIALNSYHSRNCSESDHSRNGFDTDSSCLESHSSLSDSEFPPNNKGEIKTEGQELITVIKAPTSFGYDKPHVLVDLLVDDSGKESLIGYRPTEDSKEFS
Sequence of human TLR-2 receptor on CD14-positive human thymic epithelial VTEC2.HS cells (human) (O60603 21-784): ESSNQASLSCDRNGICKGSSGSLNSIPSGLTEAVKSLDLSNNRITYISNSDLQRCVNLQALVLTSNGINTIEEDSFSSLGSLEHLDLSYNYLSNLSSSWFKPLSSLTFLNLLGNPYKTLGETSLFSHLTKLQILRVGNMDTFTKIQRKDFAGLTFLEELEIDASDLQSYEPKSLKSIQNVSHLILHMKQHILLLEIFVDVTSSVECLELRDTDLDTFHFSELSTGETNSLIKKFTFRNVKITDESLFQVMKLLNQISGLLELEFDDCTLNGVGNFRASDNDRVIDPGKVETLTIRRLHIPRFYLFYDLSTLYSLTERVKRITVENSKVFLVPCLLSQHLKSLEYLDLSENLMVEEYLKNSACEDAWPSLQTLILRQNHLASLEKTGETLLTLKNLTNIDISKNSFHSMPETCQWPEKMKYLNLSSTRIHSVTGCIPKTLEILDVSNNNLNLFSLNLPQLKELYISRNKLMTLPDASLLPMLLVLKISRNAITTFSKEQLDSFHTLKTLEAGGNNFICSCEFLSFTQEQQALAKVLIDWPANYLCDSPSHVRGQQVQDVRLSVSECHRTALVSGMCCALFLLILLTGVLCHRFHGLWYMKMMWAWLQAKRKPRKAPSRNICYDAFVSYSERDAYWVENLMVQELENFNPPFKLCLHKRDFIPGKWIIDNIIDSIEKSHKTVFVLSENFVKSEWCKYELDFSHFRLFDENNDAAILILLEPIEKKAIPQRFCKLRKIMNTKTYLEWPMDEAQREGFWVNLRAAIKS

With “LcrV (V antigen) of Yersinia pestis KIM, recombinant, freed of hexahistidine (from UniProt P0C7U7 1-326) (other; other documents disagree on this pair)” the Kd [1] was 1 mM.
Substance “LcrV68-326, N-terminally truncated LcrV (from UniProt P0C7U7 68-326) (other; other documents disagree on this pair)” has a Kd [2] of 1 mM, a Kd [3] of 1 mM and a Kd [4] of 1 mM. It also gave a Kd [5] of 1 mM and a Kd [6] of 0.8 nM.
Substance “LcrV (V antigen) of Yersinia pestis KIM, recombinant, freed of hexahistidine (from UniProt P0C7U7 1-326)” has a Kd [7] of 6 pM.
“LcrV68-326, N-terminally truncated LcrV (from UniProt P0C7U7 68-326)” showed a Kd [8] of 0.55 nM, a Kd [9] of 1 mM and a Kd [10] of 1 mM. For the same substance, the Kd [11] was 1 mM and the Kd [12] was 1 mM.
